Experiments:
[1] = target: T1, Human Alix recombinant construct ALIX(V+PRR), residues 362-760 (human, UniProt Q8WUM4 362-760); experiment: NMR titration
T1 sequence (looked up): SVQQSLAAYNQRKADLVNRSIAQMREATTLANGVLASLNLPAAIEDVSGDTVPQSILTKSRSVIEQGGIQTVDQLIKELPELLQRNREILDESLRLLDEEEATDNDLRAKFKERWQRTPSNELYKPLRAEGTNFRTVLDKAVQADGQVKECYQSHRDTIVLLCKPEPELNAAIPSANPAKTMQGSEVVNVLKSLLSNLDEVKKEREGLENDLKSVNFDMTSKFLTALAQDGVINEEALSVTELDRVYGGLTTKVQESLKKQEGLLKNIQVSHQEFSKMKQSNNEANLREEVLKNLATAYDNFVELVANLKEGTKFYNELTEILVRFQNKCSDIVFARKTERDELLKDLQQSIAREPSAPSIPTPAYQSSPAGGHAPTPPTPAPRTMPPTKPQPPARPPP

[2] = target: T1, Human Alix recombinant construct …; experiment: pull-down

B1: Fyn(R96I)-SH3, 6xHis C-terminal fusion (domain or fragment)
chain: not shown
[1]
  binding result: binds

B2: Hck-SH3-GST (domain or fragment)
chain: not shown
[2]
  binding result: binds

B3: Fyn(R96I)-SH3-GST (domain or fragment)
chain: not shown
[2]
  binding result: binds

— publication PMC3378324 (Febs Letters, 2012)
